According to patent publication US20030092037A1, “Elk1 phosphorylation related gene” (priority 2001, published 2003):

B1: 12 (protein, listed as Homo sapiens)
chain: MDHHQPGTGRYQVLLNEEDNSESSAIEQPPTSNPAPQIVQAASSAPALETDSSPPPYSSITVEVPTTSDTEVYGEFYPVPPPYSVATSLPTYDEAEKAKAAAMAAAAAETSQRIQEEECPPRDDFSDADQLRVGNDGIFMLAFFMAFIFNWLGFCLSFCITNTIAGRYGAICGFGLSLIKWILIVRFSDYFTGYFNGQYWLWWIFLVLGLLLFFRGFVNYLKVRNMSESMAAAHRTRYFFLL
B2: 16 (protein, listed as Homo sapiens)
chain: MSSLGGGSQDAGGSSSSSTNGSGGSGSSGPKAGAADKSAVVAAAAPASVADDTPPPERRNKSGIISEPLNKSLRRSRPLSHYSSFGSSGGSGGGSMMGGESADKATAAAAAASLLANGHDLAAAMAVDKSNPTSKHKSGAVASLLSKAERATELAAEGQLTLQQFAQSTEMLKRVVQEHLPLMSEAGAGLPDMEAVAGAEALNGQSDFPYLGAFPINPGLFIMTPAGVFLAESALHMAGLAEYPMQGELASAISSGKKKRKRCGMCAPCRRRINCEQCSSCRNRKTGHQICKFRKCEELKKKPSAALEKVMLPTGAAFRWFQ
B3: 18 (protein, listed as Homo sapiens)
chain: MPVQLSEHPEWNESMHSLRISVGGLPVLASMTKAADPRFRPRWKVILTFFVGAAILWLLCSHRPAPGRPPTHNAHNWRLGQAPANWYNDTYPLSPPQRTPAGIRYRIAVIADLDTESRAQEENTWFSYLKKGYLTLSDSGDKVAVEWDKDHGVLESHLAEKGRGMELSDLIVFNGKLYSVDDRTGVVYQIEGSKAVPWVILSDGDGTVEKGFKAEWLAVREIVRKRWRLVKQVSHVGVLGQWIQR
B4: 26 (protein, listed as Homo sapiens)
chain: MALALAALAAVEPACGSRYQQLQNEEESGEPEQAAGDAPPPYSSISAESAAYFDYKDESGFPKPPSYNVATTLPSYDEAERTKAEATIPLVPGRDEDFVGRDDFDDADQLRIGNDGIFMLTFFMAFLFNWIGFFLSFCLTTSAAGRYGAISGFGLSLIKWILIVRFSTYFPGYFDGQYWLWWVFLVLGFLLFLRGFINYAKVRKMPETFSNLPRTRVLFIY
B5: 28 (protein, listed as Homo sapiens)
chain: MTSFEDADTEETVTCLQMTVYHPGQLQCGIFQSISFNREKLPSSEVVKFGRNSNICHYTFQDKQVSRVQFSLQLFKKFNSSVLSFEIKNMSKKTNLIVDSRELGYLNKMDLPYRCMVRFGEYQFLMEKEDGESLEFFETQFILSPRSLLQENNWPPHRPIPEYGTYSLCSSQSSSPTEMDENES
B6: 30 (protein, listed as Homo sapiens)
chain: MDARWWAVVVLAAFPSLGAGGETPEAPPESWTQLWFFRFVVNAAGYASFMVPGYLLVQYFRRKNYLETGRGLCFPLVKACVFGNEPKASDEVPLAPRTEAAETTPMWQALKLLFCATGLQVSYLTWGVLQERVMTRSYGATATSPGERFTDSQFLVLMNRVLALIVAGLSCVLCKQPRHGAPMYRYSFASLSNVLSSWCQYEALKFVSFPTQVLAKASKVIPVMLMGKLVSRRSYEHWEYLTATLISIGVSMFLLSSGPEPRSSPATTLSGLFTVGSLLEQGALLEGTRFMGRHSEFAAHALLLSICSACGQLFIFYTIGQFGAAVFTIIMTLRQAFAILLSCLLYGHTVTVVGGLGVAVVFAALLLRVYARGRLKQRGKKAVPVESPVQKV

System: MAP kinase cascade activation
Test: Reporter activity reflecting MAP kinase cascade activation, corrected using an internal control (Elk1-GAL4 luciferase reporter in 293-EBNA cells)
Format: cell-based, human
Details: 25 ng/well expression plasmid; 293-EBNA cells; 24 hours
Procedure: (in the presence of 5% CO2). […] The method used for introduction was in accordance with the attached protocol. After culturing for 24 hours at 37° C., reporter activity (firefly luciferase acitivity), which reflects MAP kinase cascade activation, and reporter activity being the internal control (sea pansy luciferase) were measured using Picagene Dual (purchased from Toyo Ink Manufacturing) in accordance with the manufacturer's instructions.
Luciferase activity was measured with Perkin Elmer's Wallac ARVOTMST 1420 MULTILABEL COUNTER.
Reporter activity where an expression plasmid comprising the above gene was introduced, which reflects MAP kinase cascade activation corrected with internal control reporter activity, is shown in Table 1, which is expressed as a factor of the same reporter activity where a null vector was introduced (S/B value).

For B1, which “Reporter activity corrected with internal control, as a factor of null vector (S/B value)” value (shortened to “Reporter activity corrected”) is on record?
Its value is 2.1.

Which “Reporter activity corrected” value does the source give for B2 here?
Its value is 3.4.

How did the “Reporter activity corrected” value turn out when B3 was run?
The value was 1.8.

For B4, which “Reporter activity corrected” value is on record?
Its value is 1.6.

B5 was tested. Which “Reporter activity corrected” value did it give?
Its value is 1.8.

With B6 as the molecule, how does the “Reporter activity corrected” value read?
Its value is 4.2.

Same assay, conditions: 50 ng/well expression plasmid; 293-EBNA cells; 24 hours

Which “Reporter activity corrected” value does the source give for B1 here?
Its value is 2.7.

B2 was tested. Which “Reporter activity corrected” value did it give?
Its value is 8.4.

How did the “Reporter activity corrected” value turn out when B3 was run?
Its value is 2.3.

How did the “Reporter activity corrected” value turn out when B4 was run?
Its value is 3.2.

How did the “Reporter activity corrected” value turn out when B5 was run?
Its value is 2.3.

For B6, which “Reporter activity corrected” value is on record?
The value was 6.3.

Same assay, conditions: 100 ng/well expression plasmid; 293-EBNA cells; 24 hours

B1 was tested. Which “Reporter activity corrected” value did it give?
Its value is 3.9.

With B2 as the molecule, how does the “Reporter activity corrected” value read?
Its value is 8.1.

Which “Reporter activity corrected” value does the source give for B3 here?
Its value is 2.9.

For B4, which “Reporter activity corrected” value is on record?
The value was 4.1.

B5 was tested. Which “Reporter activity corrected” value did it give?
The value was 2.9.

For B6, which “Reporter activity corrected” value is on record?
The value was 7.6.

Same assay, conditions: plasmid 12.5 ng, 25 ng, 50 ng and 100 ng

With B1 as the molecule, how does the “Dependence of corrected reporter activity on amount of expression plasmid” value (“Dependence” below) read?
The value was “increases that were dependent on the amount of expression plasmid”.

B2 was tested. Which “Dependence” value did it give?
Its value is “increases that were dependent on the amount of expression plasmid”.

How did the “Dependence” value turn out when B3 was run?
Its value is “increases that were dependent on the amount of expression plasmid”.

Which “Dependence” value does the source give for B4 here?
The value was “increases that were dependent on the amount of expression plasmid”.

With B5 as the molecule, how does the “Dependence” value read?
The value was “increases that were dependent on the amount of expression plasmid”.

For B6, which “Dependence” value is on record?
The value was “increases that were dependent on the amount of expression plasmid”.
